Some targets named below: MGMT G156C (Homo sapiens, UniProt P16455 1-207, G156C); MGMT WT (Homo sapiens, UniProt P16455 1-207); MGMT G132R (Homo sapiens, UniProt P16455 1-207, G132R).
Holding throughout (test): pre-steady-state rapid-quench kinetics

From publication PMC3720794 come the findings set out here.

For orientation: Kd means the equilibrium constant for the complex coming apart. Read a high Kd as weaker binding.

Sequence of MGMT WT (P16455 whole entry): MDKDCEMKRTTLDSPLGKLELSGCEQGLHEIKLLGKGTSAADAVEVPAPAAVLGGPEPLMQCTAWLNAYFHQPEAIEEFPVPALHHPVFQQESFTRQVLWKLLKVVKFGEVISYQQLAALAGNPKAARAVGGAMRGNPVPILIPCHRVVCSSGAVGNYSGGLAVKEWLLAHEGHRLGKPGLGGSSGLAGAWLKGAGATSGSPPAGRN
Sequence of MGMT G156C (P16455 whole entry G156C): as the sequence (P16455 whole entry) above, with G156C counted along it
Sequence of MGMT G132R (P16455 whole entry G132R): as the sequence (P16455 whole entry) above, with G132R counted along it

B1: PvuIITopD/PvuIIBottom (O6MeG 18 bp duplex) (dsDNA)
DNA 1: GCCCGGCCAGCTGCAGTT
DNA 2: AACTGCAGCTGGCCGGGC
modifications: O6-methylguanine at position 13 of strand 1 (printed as X), paired with C
Regarding B1, the Kd in the data set with MGMT G156C amounted to 240 ± 60 nM; with MGMT WT, 6.2 ± 0.7 nM; with MGMT G132R, 14 ± 3 nM.
